Reference: patent US20240327544A1

Molecular target: human FcγRIa expressed on transiently transfected CHO-S cells (human) (UniProt P12314)
Experiment: flow cytometry, CHO-S cells transiently expressing human FcγRIa, PE-conjugated goat anti-human IgG F(ab')2, % PE+ cells

Chain of human FcγRIa expressed on transiently transfected CHO-S cells (human) (P12314 16-374): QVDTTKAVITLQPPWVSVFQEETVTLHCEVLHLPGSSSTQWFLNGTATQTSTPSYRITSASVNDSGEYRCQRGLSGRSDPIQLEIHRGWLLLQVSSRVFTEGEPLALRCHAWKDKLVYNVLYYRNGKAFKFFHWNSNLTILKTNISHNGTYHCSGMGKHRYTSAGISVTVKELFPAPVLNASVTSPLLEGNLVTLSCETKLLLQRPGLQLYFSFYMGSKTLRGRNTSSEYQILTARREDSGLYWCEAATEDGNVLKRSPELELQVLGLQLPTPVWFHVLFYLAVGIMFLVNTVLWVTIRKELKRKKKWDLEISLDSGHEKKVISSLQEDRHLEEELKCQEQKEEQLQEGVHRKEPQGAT

nivolumab (antibody)
EC50 (read off the curve): 0.2 µg/mL
